{"source": "patent US20170173114A1", "about": "“METHODS AND COMPOSITIONS FOR INDUCTION OF UCP1 EXPRESSION” (Joslin Diabetes Center, Inc., priority 2014, published 2017)", "molecules": {"B1": {"name": "FGF6: fibroblast growth factor 6; recombinant human FGF from R&D Systems, or mouse FGF6 cDNA overexpressed by lentiviral vector (protein)", "chain": "KRQRRLYCNVGIGFHLQVLPDGRISGTHEENPYSLLEISTVERGVVSLFGVRSALFVAMNSKGRLYATPSFQEECKFRETLLPNNYNAYESDLYQGTYIALSKYGRVKRGSKVSPIMTVTHFLPRI"}}, "key": {"[1]": {"test_system": "WT-1 brown preadipocytes", "assay": "2-deoxy-[3H]glucose uptake in WT-1 brown preadipocytes", "type": "cell-based, murine", "conditions": "FGF6 overexpressing vs control and EGF", "method": "(§1) The following glucose uptake assay was used to determine whether FGF6 could impact cellular glucose uptake. Specifically, glucose uptake was monitored in WT-1 brown preadipocytes and 3T3-F442A white preadipocytes in the presence or absence of FGF6. After serum starvation in DMEM/H medium containing 1% of BSA for 2-3 h, cells were washed with HEPES buffer and then incubated with or without 100 nM insulin for 30 min in DMEM/H medium containing 1% of BSA. Glucose transport was determined by the addition of 2-deoxy-[3H]glucose (0.1 mM, 0.5 μCi/mL; PerkinElmer Life and Analytical Science, Waltham, Mass.). After 5 minutes of incubation, the reaction was stopped by ice-cold PBS and cells were washed twice with ice-cold PBS. Cells were then lysed in 0.1% SDS, and glucose uptake was assessed in 4 mL of scintillant using Beckman LS6500 scintillation counter (Beckman Coulter, Indianapolis Ind.). Nonspecific 2-deoxy-[3H]glucose uptake was measured in the presence of cytochalasin B (20 μM) and was subtracted from the total uptake to get specific glucose uptake. Results were expressed as the mean±s.e.m. of the indicated number of experiments. The protein content was determined by the Bradford method.\nThe role of PGs in regulating mitochondrial function and cellular glucose uptake was also assessed. […]"}, "[2]": {"test_system": "UCP1", "assay": "Marker mRNA expression and culture media acidification in mature brown adipocytes", "type": "cell-based, murine", "conditions": "seven days", "method": "The effect of FGF6 on murine mature brown adipocytes was also examined. Mature brown adipocytes were treated with FGF6 in growth media (DMEM+10% FBS), a vehicle control (buffer) (“buffer” referred to in FIG. 22), or BMP7 for seven days. Following the treatment, cells were examined for the color of the culture media in combination with oil Red O staining, expression of adipogenic markers, and expression of brown fat markers.\nmRNA expression of UCP1, PPARγ, PTGS2, NDST3 and SIRT1 was measured in the mature adipocytes exposed to either the control, BMP7, or FGF6."}, "[3]": {"test_system": "WT-1 brown preadipocytes", "assay": "Cell proliferation (MTT assay) in WT-1 brown preadipocytes", "type": "cell-based, murine", "conditions": "200 ng/ml; 24 and 72 hours", "method": "FIGS. 4A-4C graphically depict FGF6 induction of UCP1 expression in brown preadipocytes in a dose-dependent and time-regulated manner. Specifically, FIG. 4A depicts a dose-response curve of UCP1 expression by FGF6 at day 7. Numbers above curve indicate fold-increase relative to vehicle control. FIG. 4B depicts the fold-induction of UCP1 by vehicle control (“C”), FGF6 (“F6”) or FGF21 (“F21”) within 24 hours of treatment. FIG. 4C depicts a time-course of UCP1 expression induced by 200 ng/ml of FGF6, compared with cells differentiated in regular induction media. Numbers above curves indicate fold-induction relative to day 0. FIG. 4D depicts the effect of FGF6 on cell proliferation (measured by MTT assay) at 24 and 72 hours.\nThe effect of FGF6 on cell proliferation was also evaluated."}, "[4]": {"test_system": "UCP1 and PTGS2", "assay": "UCP1 and PTGS2 mRNA in WT-1 cells differentiated with BMP7", "type": "cell-based, murine", "conditions": "200 mg/mL FGF6 for 32 hours after 8 days BMP7; vs vehicle", "method": "WT-1 preadipocyte cells were exposed to 3.3 nM BMP7 in growth media (DMEM-high glucose, 10% FBS, supplemented with 20 nM insulin and 1 nM triiodothyronine (T3)) for 8 days in order to induce differentiation of the adipocytes (Tseng Y. H. et al., (2008) Nature 454(7207):1000-1004). Following day 8 of treatment, the cells were exposed to […] of FGF6 protein, or vehicle control, in growth media for 32 hours. Cells were then collected, and UCP1 and PTGS2 mRNA expression levels were determined according to the quantitative RT-PCR assay described above."}, "[5]": {"test_system": "3T3-F442A white preadipocytes", "assay": "Seahorse Bioanalyzer cellular respiration in 3T3-F442A white preadipocytes", "type": "cell-based", "conditions": "constitutive overexpression of FGF6", "excerpt": "The Seahorse XF24 (Seahorse Bioscience, http://www.seahorsebio.com/) was utilized for respirometry to measure oxygen consumption rates (OCR; indicating oxidative phosphorylation) and extracellular acidification rates (ECAR; indicating extracellular pH) in mature brown adipocytes. The cell plates and assay cartridges for the Seahorse XF24 have four ports allowing for drug delivery to individual wells during measurement of the metabolic parameters. For a typical bioenergetic profile, cells are first treated with oligomycin to block ATP synthase, FCCP as an uncoupler and Rotenone to block Complex 1 of the ETC (all from Sigma). Example 2 provides additional details regarding the general method. Data provided in the Figures (e.g., FIG. 27) based on the Seahorse Bioanalyzer includes a bottom horizontal line which represents the baseline of the mechanics of the machine and is not related to the experiment.\nTo assess FGF6's role in the regulation of mitochondrial activity, FGF6 was stably expressed in WT-1 brown preadipocytes and 3T3-F442A white preadipocytes. Stable cells were generated by viral infection followed by drug selection.\nA profile of cellular respiration was developed by utilizing well-characterized mitochondrial toxins, as described in FIG. 5B. First, basal respiration was measured, followed by injection of oligomycin (an inhibitor of ATP synthase which allows measurement of ATP turnover). Then, the uncoupler FCCP (carbonilcyanide p-triflouromethoxyphenylhydrazone) was injected to measure respiratory capacity, followed by the complex 1 inhibitor rotenone (which prevents electron transfer activity and leaves only non-mitochondrial activity to be measured).\nAs mentioned above, 3T3-F442A white preadipocytes were also used to determine FGF6's role in mitochondrial activity regulation."}, "[6]": {"assay": "Glucose levels after subcutaneous injection in Chow or high fat diet mice", "type": "in vivo, C57BL6 mice", "conditions": "0.5 mg/kg subcutaneous; vs buffer", "method": "To determine whether induction of UCP1 and mitochondrial activity by FGF6 could lead to increased nutrient utilization and lower blood glucose or fatty acid in obese mice, diet-induced obese (DIO) mice were treated with recombinant FGF6, and glucose levels were monitored after injection. Specifically, C57BL6 mice (11 weeks) were fed on either a high fat diet (HFD) or a Chow diet (a regular animal diet as a control) and were injected subcutaneously with 0.5 mg/kg recombinant FGF6 (n=5) or buffer (n=5). Glucose levels were measured every 6 hours after injection."}, "[7]": {"test_system": "3T3-F442A white preadipocytes", "assay": "2-deoxy-[3H]glucose uptake in 3T3-F442A white preadipocytes", "type": "cell-based", "conditions": "FGF6 overexpressing vs control and EGF", "method": "as §1"}}, "note": "“Also recorded” adds a separate entry of the source.", "data": [{"molecule": "B1", "values": [{"measurement": "glucose uptake level in WT-1 (brown) preadipocytes", "setting": "[1]", "result": "increased"}, {"measurement": "acidification of cell culture media, mature brown adipocytes", "setting": "[2]", "result": "no acidification of cell culture media"}, {"measurement": "UCP1 mRNA expression in mature adipocytes", "setting": "[2]; vs buffer or BMP7", "result": "does not induce"}, {"measurement": "effect on cell proliferation", "setting": "[3]", "result": "virtually no effect"}, {"measurement": "PTGS2 levels in cells differentiated using BMP7", "setting": "[4]", "result": "increased"}, {"measurement": "UCP1 expression in cells differentiated using BMP7", "setting": "[4]", "result": "induced UCP1 expression"}, {"measurement": "gain of ATP turnover", "setting": "[5]", "result": 5, "unit": "fold"}, {"measurement": "gain of proton leak", "setting": "[5]", "result": 5, "unit": "fold"}, {"measurement": "increase in cellular respiration", "setting": "[5]", "result": "5-10 fold"}, {"measurement": "increase of basal respiration", "setting": "[5]", "result": "~7", "unit": "fold"}, {"measurement": "increase of maximal respiratory capacity", "setting": "[5]", "result": "~6", "unit": "fold"}, {"measurement": "glucose level, Chow diet mice", "setting": "[6]", "result": "reduction in glucose levels; also recorded: lowers glucose levels"}, {"measurement": "glucose level, high fat diet (obese) mice", "setting": "[6]", "result": "lowers glucose levels"}, {"measurement": "glucose uptake level in F442A (white) preadipocytes", "setting": "[7]", "result": "increased"}]}]}
